The results in this text go back to patent US20040132073A1 (Takeda / Millennium, published 2004).

Test [1] concerns the target rat G protein-coupled receptor protein rOT7T022L (rat, UniProt Q9EP86 1-432). As to the kind of experiment: cell-based or functional assay.
Test [2] addresses human G protein-coupled receptor protein hOT7T022 (human, UniProt Q9GZQ6 1-430). The test is described as follows: cell-based or functional assay.

Ends that are not written are not given here.

Sequence of human G protein-coupled receptor protein hOT7T022 (Q9GZQ6 whole entry): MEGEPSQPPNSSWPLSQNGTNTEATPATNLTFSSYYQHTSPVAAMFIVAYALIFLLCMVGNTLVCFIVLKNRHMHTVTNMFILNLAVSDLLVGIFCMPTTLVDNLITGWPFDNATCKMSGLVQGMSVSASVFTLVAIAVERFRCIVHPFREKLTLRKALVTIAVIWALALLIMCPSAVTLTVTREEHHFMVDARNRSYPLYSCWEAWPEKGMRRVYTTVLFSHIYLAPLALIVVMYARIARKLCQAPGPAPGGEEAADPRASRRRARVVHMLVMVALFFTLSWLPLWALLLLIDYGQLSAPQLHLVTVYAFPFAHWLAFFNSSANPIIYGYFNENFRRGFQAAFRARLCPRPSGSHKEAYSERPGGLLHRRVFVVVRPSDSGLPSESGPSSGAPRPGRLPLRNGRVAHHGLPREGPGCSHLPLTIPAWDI
Sequence of rat G protein-coupled receptor protein rOT7T022L (Q9EP86 whole entry): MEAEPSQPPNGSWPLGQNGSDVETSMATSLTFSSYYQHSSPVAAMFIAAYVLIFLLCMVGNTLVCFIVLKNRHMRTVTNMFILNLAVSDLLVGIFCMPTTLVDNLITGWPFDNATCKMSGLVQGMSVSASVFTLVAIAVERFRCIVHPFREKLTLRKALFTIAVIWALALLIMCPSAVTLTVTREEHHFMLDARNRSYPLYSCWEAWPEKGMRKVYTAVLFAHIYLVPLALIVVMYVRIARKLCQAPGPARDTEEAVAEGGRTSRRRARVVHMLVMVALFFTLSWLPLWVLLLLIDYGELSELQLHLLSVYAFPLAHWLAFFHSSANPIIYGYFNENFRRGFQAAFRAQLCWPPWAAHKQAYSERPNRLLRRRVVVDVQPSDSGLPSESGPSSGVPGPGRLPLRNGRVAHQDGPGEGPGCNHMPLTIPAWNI

As for MPHSFANLPLRF-NH2 [peptide MPHSFANLPLRFamide (SEQ ID NO: 39)], the “IC50 of cAMP production suppression (forskolin-stimulated cells, cAMP EIA)” value in test [1] was determined as 0.5 nM. Moreover, the “ED50, inhibition of the increased cAMP level in the cells by the forskolin treatment” value in test [2] amounted to 4.5 nM.

Consider SLNFEELKDWGPKNVIKMSTPAVNKMPHSFANLPLRF-NH2 [hRFRP-1-37 (peptide having the 56 (Ser) to 92 (Phe) amino acid sequence in SEQ ID NO: 1)], for which the “ED50, inhibition of the increased cAMP level in the cells by the forskolin treatment” value in test [2] is 21 nM.

PQRF-NH2 [PQRFamide (peptide shown by Pro-Gln-Arg-Phe-NH2)]: the “ED50, inhibition of the increased cAMP level in the cells by the forskolin treatment” value in test [2] was at least 1000 nM.

Take SVTFQELKDWGAKKDIKMSPAPANKVPHSAANLPLRF (ends and bridges not checked) [rRFRP-1-37 (peptide having the 58 (Ser) to 94 (Phe) amino acid sequence in SEQ ID NO: 50)]: the “ED50, inhibition of the increased cAMP level in the cells by the forskolin treatment” value in test [2] was determined as 30 nM.
